# Assay results as given in article PMC5699047 (Proceedings of the National Academy of Sciences of the …, 2017).
# T1: MBP-COP1 (Arabidopsis, UniProt P43254 1-675)
# T1 sequence (looked up): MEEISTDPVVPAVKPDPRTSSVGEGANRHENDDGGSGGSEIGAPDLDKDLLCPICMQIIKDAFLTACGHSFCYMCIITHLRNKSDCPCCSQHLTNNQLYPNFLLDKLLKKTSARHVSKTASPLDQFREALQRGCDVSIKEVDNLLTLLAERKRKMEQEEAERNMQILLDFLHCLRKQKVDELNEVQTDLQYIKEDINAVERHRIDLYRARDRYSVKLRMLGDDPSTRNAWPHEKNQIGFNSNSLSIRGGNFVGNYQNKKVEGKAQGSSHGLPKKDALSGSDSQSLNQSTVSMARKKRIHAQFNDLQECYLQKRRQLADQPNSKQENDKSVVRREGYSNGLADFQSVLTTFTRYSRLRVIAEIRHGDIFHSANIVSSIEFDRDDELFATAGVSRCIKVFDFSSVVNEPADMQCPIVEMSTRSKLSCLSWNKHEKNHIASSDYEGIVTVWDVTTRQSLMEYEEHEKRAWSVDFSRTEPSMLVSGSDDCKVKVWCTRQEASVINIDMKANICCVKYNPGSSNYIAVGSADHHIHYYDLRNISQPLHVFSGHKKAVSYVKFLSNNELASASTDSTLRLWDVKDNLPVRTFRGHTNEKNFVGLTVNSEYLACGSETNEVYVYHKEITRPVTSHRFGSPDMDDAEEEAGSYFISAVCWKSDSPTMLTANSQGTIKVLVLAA
# B1: GST-WDL3 (natural protein)
# chain: not shown
# Target: T1, MBP-COP1
# Test: pull-down
binder,measurement,value
B1,binding result,binds
